# From PMC3205447
# What was measured:
# [1] = target: TRAF2 (UniProt P39429); assay: anti-TRAF2 IP, TAX1BP1 immunoblot; conditions: reference: wild type; sites S593,S624
# [2] = target: TRAF6 (UniProt P70196); assay: anti-TRAF6 IP, TAX1BP1 immunoblot; conditions: reference: wild type; sites S593,S624
# Chain of UniProt P70196 (P70196 whole entry, looked up): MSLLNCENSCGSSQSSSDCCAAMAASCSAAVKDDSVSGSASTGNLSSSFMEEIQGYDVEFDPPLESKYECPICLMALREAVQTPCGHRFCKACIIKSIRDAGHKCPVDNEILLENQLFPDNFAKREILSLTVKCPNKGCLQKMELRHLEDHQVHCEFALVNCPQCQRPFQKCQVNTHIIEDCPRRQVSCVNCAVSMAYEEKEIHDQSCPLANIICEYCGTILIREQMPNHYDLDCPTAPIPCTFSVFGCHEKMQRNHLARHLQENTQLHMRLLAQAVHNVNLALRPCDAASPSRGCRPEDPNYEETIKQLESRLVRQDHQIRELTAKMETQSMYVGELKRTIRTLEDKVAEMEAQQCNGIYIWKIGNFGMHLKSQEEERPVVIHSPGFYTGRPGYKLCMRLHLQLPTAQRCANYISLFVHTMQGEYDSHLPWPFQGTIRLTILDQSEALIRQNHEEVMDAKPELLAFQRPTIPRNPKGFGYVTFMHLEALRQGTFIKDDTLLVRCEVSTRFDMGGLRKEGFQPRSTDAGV
# Chain of UniProt P39429 (P39429 whole entry, looked up): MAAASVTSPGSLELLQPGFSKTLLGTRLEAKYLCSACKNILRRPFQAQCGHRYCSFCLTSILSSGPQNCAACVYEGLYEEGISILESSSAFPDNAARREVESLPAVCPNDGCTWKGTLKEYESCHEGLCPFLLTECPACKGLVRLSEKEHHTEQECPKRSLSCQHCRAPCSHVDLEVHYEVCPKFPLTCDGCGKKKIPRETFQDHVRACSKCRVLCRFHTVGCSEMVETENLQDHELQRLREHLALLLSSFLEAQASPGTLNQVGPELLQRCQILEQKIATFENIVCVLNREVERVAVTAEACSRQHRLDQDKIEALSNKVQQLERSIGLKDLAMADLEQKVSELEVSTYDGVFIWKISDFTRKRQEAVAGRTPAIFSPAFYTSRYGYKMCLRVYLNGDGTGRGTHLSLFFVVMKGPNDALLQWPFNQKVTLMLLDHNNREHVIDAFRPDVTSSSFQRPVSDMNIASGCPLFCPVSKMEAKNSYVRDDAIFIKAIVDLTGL
substance,measurement,setting,value
"TAX1BP1 (Flag-tagged, amino acids 1–747) 1-747 (from UniProt Q86VP1-2) S593A, S624A",binding against the reference,[1],lost
same,binding against the reference,[2],lost
